Test results taken from the nanobody polyreactivity screen of Harvey et al. (2022).

Experiment: yeast display, Sf9 membrane polyspecificity reagent, FACS + sequencing; frameworks hold sequencing errors
Procedure, shortened: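 In a synthetic yeast display library (Saccharomyces cerevisiae BJ5465), nanobody expression was induced with galactose for 36–48 hours. FACS gates were set low and high (top ~1%) using anti-HA fluorescence for expression and streptavidin fluorescence for binding of the Sf9 membrane reagent. Each polyreactivity label is drawn from the gate of origin.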

| Sequence | polyreactivity (PSR sort gate) |
| --- | --- |
| QVQLEESGGGLVQAGGSLRLSCAASGSIFFGNDMGWYSQAPGKERELVAGISNGGRTNYADSVKGRFTISRDNAKNHVYLLMHSLKPEDTAVYYCAKHPVYIYWSRVLVGYSSWGQGTQGTVSS | low polyreactivity |
| QVQLEESGGGLVQAGGSLRLSCAASGSIFGYNHMGWYRQAPGKERELVATITWGGGRTRYADSVKGRFTISRVNAKNTVYLQMNSLKPEDTAVYYCAADKRSYSYVRPPRNHEDYWGQGTQVTVSS | low polyreactivity |
| QVQLEESGGGLVQAGGSLRLSCAASGSIFKFYAMGWYRQAPGKEREFVAAIRQSGGRTYYADSVKGRFTISRDNAKNTVYLPMNSLKPEDTAVYYCAADGYYWEYYYWGQGTQVTVSS | high polyreactivity |
| QVQLEESGGGLVQAGGSLRLSCAASGSIFLNYGMGWYRQAPGKERELVAGISNGGSTNYADSVKGRFTISRDNAKNTVYLQMNSLKPEDTAVYYCARPAYKSRGKRFDYWGQGTQVTVSS | low polyreactivity |
| QVQLEESGGGLVQAGGSLRLSCAASGSIFPWYAMGWYRQAPGKERELVAVITSGGSTNYADSVKGRFTISRANAKNTVYLQMNSLYPEDTAVYYCYADAPLDDFSPRFEVSTEHSWGQGTQVTVSS | low polyreactivity |
| QVQLEESGGGLVQAGGSLRLSCAASGSIFQTYAMGWSRQAPGKERQLVAAITSGGGSTYYADSVKGRFTISRDNAKNTVYLQMNSLKREDTAVYYCAAGSRFVSSRLYYWGQGTQVTVSS | high polyreactivity |
| QVQLEESGGGLVQAGGSLRLSCAASGSIFRSYAMGWYRQAPGKEREFVAAINSRSGSTYYADSVKGRFTISRDNAKNTVYLQMNSLKPEDTAVYYCAAKFAQPDYRYDYWGQGTQVTVSS | high polyreactivity |
| QVQLEESGGGLVQAGGSLRLSCAASGSIFSAYFMVWYRQAPGKERELVAAINRGGNTYYADSVKGRFTISRDNANITVYLQMNSLKPEDTAVYYCNAQWYYLRYRYDYWGQGTQVTVSS | high polyreactivity |
| QVQLEESGGGLVQAGGSLRLSCAASGSIFSIYAMGWYRQAPGKERELVASITRSSGRTYYADSVKGRFTISRDNAKNTVYLQMNSLKPEDTAVYYCAKDYIPLALDADDYWGQGTQVTVSS | low polyreactivity |
| QVQLEESGGGLVQAGGSLRLSCAASGSIFVGYALGWYIQAPGKERELVASITTRGGSTHYADYVKGRFTISRDNAKNTVYLQMNSLKPEDTAVYYCAADSLSNGVLQYLPGYDYWGQGTQVTVSS | low polyreactivity |
| QVQLEESGGGLVQAGGSLRLSCAASGSIFYDNVMGWSRQAPGKERELVAGITRGGSTNYADSVKGPFTISRDNAKNTVYLQMNSLKPEDTAVSYCAADGTYVWGSEEGNYWGQGTQVNVSS | low polyreactivity |
| QVQLEESGGGLVQAGGSLRLSCAASGSIFYEYAMGLYRTAPGKERVFVAAISSRGGYTNYADSVKGRFTISRDNAKNTVYLQMNSLKPEDTAVYYWAGYGGLQSRYYYWGLGTQVTVSS | high polyreactivity |
| QVQLEESGGGLVQAGGSLRLSCAASGSIFYQYDMGWYRQAPGKERELVAAITQRGGRTYYADSVKGRFTISRDNAKNTVDLKMNSLKPELTAVYYCAADNDSYWGYVYWGQGTQVTVSS | high polyreactivity |
| QVQLEESGGGLVQAGGSLRLSCAASGSIIGPNAMGWYRQAPGKDRELVAAITSGSSTKYADSVKGRFTISRDNAMNTVYLQMNSLKPEDTAVDYCAASGTTTWKYGFWGQGTQVTVSS | low polyreactivity |
| QVQLEESGGGLVQAGGSLRLSCAASGSILDLNAMGWSRQATGKERELVAAISYSGDSTYYADSVKGRFTISRDNAKNTVYLQMNSQKPEDTAVYYCAAEVYGAVYDYWGQGTQVTVSS | low polyreactivity |
| QVQLEESGGGLVQAGGSLRLSCAASGSIYYLNAMGWYRQAPGKERELVAAINSGGTTNYADSVKGRFTISRDNAKYTVYLQMNSLKPEDTAVYYCATDGYYYYYRVYKFDYWGQGTQVTVSS | low polyreactivity |
| QVQLEESGGGLVQAGGSLRLSCAASGSTCPTNAIGWYRQAPRKERELVADITIRRGGTSYADSVKGRFTMSRDNAKNTVYLQMNSLKPEDTAVYYCARSKSTELKRLLYDSWGQGTQVTVSS | low polyreactivity |
| QVQLEESGGGLVQAGGSLRLSCAASGSTFDFNAMGWYRQVPGKERELVAAITSGGSTNYADSVKGRFTISRDNAKNTVYLQMNSLKPEDTAVYYCAARPARGDSQGGYVRPWCYDSWGQGTQVTGSS | low polyreactivity |
| QVQLEESGGGLVQAGGSLRLSCAASGSTFGFYAMRWYRQAPGKERDLVAAISSAARTYYADSVKGRFTISRDNAKNTVYLQMNSLKPADTAVYYCSAEAYHWTSYIGYGGVYYWGQGTQVTGSS | low polyreactivity |
| QVQLEESGGGLVQAGGSLRLSCAASGSTFVVYAMGWYRQAPGKERELVAAISGRGGRTYYADSVKGRFTISRDNAKNTVYLQMISLKPEDTAVYYCSTRYNNLYTIRVGEYDSWGQGTQVTVSS | high polyreactivity |
| QVQLEESGGGLVQAGGSLRLSCAASGSTFVYNALGWNRQAPGKEREFVAVINWSGGRTYADSVKGRFTISRDNAKTTVYLQMNSLNPDETEVYYCNAERRSYRFALQYRRYDYWGEGTQVTVSS | high polyreactivity |
| QVQLEESGGGLVQAGGSLRLSCAASGSTFWFNAMGWYRQAPGKERELVAVITWSGDGTYYADSVKGRFTISRDNANYTVYLQRNSLKPEDTAVYYCAKGFERYPWYDYWGQGTQVTVSS | low polyreactivity |

| Sequence | polyreactivity (PSR sort gate) |
| --- | --- |
| QVQLEESGGGLVQAGGSLRLSCAASGSTFYEYAMGWYRQAPGKERELVAAITTVGSTNYADSLKGRFTISRDNAKNTVYLQMNSLKPEDTAVYYCNKRPVILYDYWGLGTQVTVSS | low polyreactivity |
| QVQLEESGGGLVQAGGSLRLSCAASGSTFYIYAMGSYRQAPGKERELVARMSGSGGSTYYADSVKGRFTISRDNAKNTVYLQMNSVKPEDTAVYYCAADDIYKYYQYYAFPYYRYDYWGQGTQVTVSS | low polyreactivity |
| QVQLEESGGGLVQAGGSLRLSCAASGSTFYPYAMGWYIQAPGTERELVAAISSRDGRTYYADSVKGRFTISRDNAKNTVYLQMNSLTPEDTAVYYCAASSFNNGHRYDYWGQGTQVTVSS | high polyreactivity |
| QVQLEESGGGLVQAGGSLRLSCAASGSTNVKYAMGWYRQAPGKERELVAAITYSGDSTYYADSLKGRFTSSRDNAKNTVYLQINSLKPEDTAVYYWAAELVVRYMVSDYELEYWGQGTQVTVSS | low polyreactivity |
| QVQLEESGGGLVQAGGSLRLSCAASGSTYPSNAMGWYRQATGKERELVATITTGGSTYYADSVKGRFTISRDNAKNTVYLQMNSLKPEDTAVYYCNAEYVYLIFSVYLYDYDYWGLGTQVTVSS | low polyreactivity |
| QVQLEESGGGLVQAGGSLRLSCAASGYILNDYTKGWYRQAPGKERELVAAITSSGDRTYYADSVKGRFTISRDNAKNTVYLQMNSLNPEDTAVYYCAADIYLGDYYYWGLGTQVTVSS | low polyreactivity |
| QVQLEESGGGLVQAGGSLRLSCAASGYTFSHYAIGWYRQAPGKERELVAGITWSGGSTYYADSVKGRFTISRDYAKNTVYLQMNSLKPEDTSVYYCAAKYYWYYSYSGIPLFDYWGQGTQVTVSS | low polyreactivity |
| QVQLEESGGGLVQAGGSLRLSCAASGYTFYLYAMAWYRQSPGKERELVAAISTNGGRTYYADSVKGRFTISRDNAKNTVYLQMNSLKPEDTAVYYCAVRSRGTAPQYYYWGQGTQVTVSS | high polyreactivity |
| QVQLEESGGGLVQAGGSLRLSCAASGYTFYRYTMGWYRQAPGKERELVAAISSRGGSKYYADSVKGRFTISRDNAKNTVYLQMNSLKPEDTAVYFCARKYPRKTLSKGFDYWGQGTQVTVSS | high polyreactivity |
| QVQLEESGGGLVQAGGSLRLSCADSGRTFRFYTIGWYRQAPGKERELVASISWGGTSTYYADSVKGRFTISRDNANNTVYLQMISLKPEDTAVYSCAAPRWVEGFRFDYWGQGTQVTVSS | high polyreactivity |
| QVQLEESGGGLVQAGGSLRLSCAGSGRIFIHYTMGWYRQAPGKERELVAAISTSGGSTYYADSVKGRFTISRDTAKNTVYLQMKSLKPEDTAGYYCAPVYRGYSGEGYYWGQGSQVTVSS | high polyreactivity |
| QVQLEESGGGLVQAGGSLRLSCDASGFTFAYYAMGWYRPAPGKEREFVAAITKGGGSTNYADSVKGRFTISRDNAKNTVYLQMNSLKPEDTAVYYCNADYFVWYIGRVFSRYGYWGLGTQVTVSS | low polyreactivity |
| QVQLEESGGGLVQAGGSLRLSCPASGRTFHGYAMGSYRQAPGKERELVAAITGTGGRTYYADSVKGRFTISRDNAKNTVYLQMNSLKPEDTAVYYCAARPWIKSGYWGQGTQVTVSS | high polyreactivity |
| QVQLEESGGGLVQAGGSLRLSCVASGSTFRFYAMGWYRPAPGNERQLVAAITWRGTSTYYADSVKGRFTISRDNAKNSVYLQMNSLKPEDTAVYYCNAAGYWPATGDYWGQGTQVTVSS | high polyreactivity |
| QVQLEESGGGLVQAGGSLRLSFAAYGRTFGTNPMGWYRQATGKERELVAAITKSSSRTYYADSVKGRFTISRDNAKNTVYLQMNSLKPEDTAVYYCAARYYAVGGYDYWGQGTQVTVSS | high polyreactivity |
| QVQLEESGGGLVQAGGSLRLTCAASGFTFGYYTMGWYRQAPGQERELVAAISSGGSTNYADSVKGRFTISRDNAKNTVYLEMNSLKPEDTAVYYCTATQIGPYYLPFDSWGQGTQVTVSS | high polyreactivity |
| QVQLEESGGGLVQAGGSLRLTCAASGFTINEYAMGRYIQAPGKERELVAAISRGGTTYYADSVKGRFTISRDNAKNTVYLQMNSLKPEDTAVYYCAAPYFWNTEMDYWGQGTQVSVSS | low polyreactivity |
| QVQLEESGGGLVQAGGSLRLTCAASGLIFHDYAMGWYRQATGTEMELVAAISWSDGTTYYADSVKGRFTISRDNAKITVYLQMNSLKPEDTAVYYCAAEEVSGWEYDFWGQGTQVTVSS | high polyreactivity |
| QVQLEESGGGLVQAGGSLRLTCAASGRIFYRNSMGWYRQATGKERELVATISGRGGSTYYADSVKGRFTISRDNAKNTDYLQMNSLKPEDTAVYYCAVRNHGSVRWTGESWGQGTQVTVSS | high polyreactivity |
| QVQLEESGGGLVQAVGSLRLSCAASGFIFKRNAMGWYRQAPGKERELVAAITSRGGHTYYADSVKGRFTISRDNAKNTVYLQMNSLKAEDTAVYYCAATYASHDDYWGQGTQVTVSS | high polyreactivity |
| QVQLEESGGGVVQAGGSLRLSCAASGGTFSRYAMGWYRQATGKERELVAAITRSGASTFYADSVKGRFTISRDNAKNTVYLQMNSLKPEDTAVYYCAADTYVYNEYDYWGQGTQVTVSS | high polyreactivity |
